# Laboratory results as given in patent publication US20170165373A1 (Amgen, published 2017).
# Positions count from the first letter of the chain named. Names and notes keep the numbering of the source.
# B1: 32B5-MCC-DM1 (antibody drug conjugate) (other)
# VH: EVQLLESGGALVQPGGSLRLSCAASGFTFSSYAMNWVRQAPGKGLEWVSAISVGGDTYYADSVKGRFTISRDNSKNTLYLHVNSLSAEDSAVYYCAKDQVTLVRGVWYYYGLDVWGQGTTVTVSS
# VL: VIVLIQSPLSLPVTPGEPASISCRSSQSLLHSNGNNYLDWYLQKPGQSPHLLISLGSNRTSGVPDRFSGSGSGTDFTLKISRVEAEDVGFYYCMQALQPPRRFGQGTKLEIKR
# modifications: antibody carries DM1 through the MCC linker; sites not stated
# B2: 32B5 (antibody, V domains shown)
# VH: B1 VH
# VL: B1 VL
# notes: 32B5.1 was purified hybridoma IgG2 or IgG4; later converted to human IgG1; also called Ab-10; 32B5.1
# B3: 2A1 Covariance 4 (2A1_D84N + C107T) (antibody, human IgG1, lambda, V domains shown)
# VH: EVQLVESGGGLVKPGRSLRLSCTASGFTFGDYALSWFRQAPGKGLEWVGVSRSKAYGGTTDYAASVKGRFTISRDNSKSFAYLQMNSLKTEDTAVYYCTSSGYSSGWTPFDYWGQGTLVTVSS
# VL: not shown
# B4: 2A1 Covariance 12 (2A1_T24A + F44V + F88T + C107T) (antibody, human IgG1, lambda, V domains shown)
# VH: B3 VH with T23A, F37V, N76D, F80T
# VL: not shown
# B5: 2A1 Covariance 5 (2A1_F88T + C107T) (antibody, human IgG1, lambda, V domains shown)
# VH: B3 VH with N76D, F80T
# VL: not shown
# B6: 2A1 Covariance 7 (2A1_S108K + C107T) (antibody, human IgG1, lambda, V domains shown)
# VH: B3 VH with N76D, S100K
# VL: not shown
# B7: 2A1 Covariance 14 (2A1_T24A + F44V + F88T + C107A) (antibody, human IgG1, lambda, V domains shown)
# VH: B3 VH with T23A, F37V, N76D, F80T, T99A
# VL: not shown
# B8: 2A1 Covariance 13 (2A1_F44V + F88T + C107A) (antibody, human IgG1, lambda, V domains shown)
# VH: B3 VH with F37V, N76D, F80T, T99A
# VL: not shown
# B9: 2A1 Covariance 6 (2A1_C107A) (antibody, human IgG1, lambda, V domains shown)
# VH: B3 VH with N76D, T99A
# VL: not shown
# B10: 2A1 Covariance 11 (2A1_F44V + C107A + S108K) (antibody, human IgG1, lambda, V domains shown)
# VH: B3 VH with F37V, N76D, T99A, S100K
# VL: not shown
# B11: 33C7 (antibody, V domains shown)
# VH: B1 VH
# VL: B1 VL
# notes: Tested as purified hybridoma IgG2 or IgG4; also called Ab-11; 33C7_HC#1
# B12: 29C12 (antibody, V domains shown)
# VH: B1 VH with H81Q, V82M, S86R, S90T, L102M
# VL: B1 VL with V1D, L4M, F90V
# notes: also called Ab-8; 29C12.1
# B13: 35D2 (antibody, V domains shown)
# VH: B1 VH with D56G, S86R, S90T, L102M
# VL: B1 VL
# notes: also called Ab-15; 35D2.1
# B14: 37B2 (antibody, V domains shown)
# VH: B1 VH with S31N
# VL: B1 VL
# notes: Tested as purified hybridoma IgG2 or IgG4; also called Ab-16; 37B2.1
# B15: 30E1 (antibody, V domains shown)
# VH: EVQLLESGGGLVQPGGSLRLSCAASGFTFSSHAMSWVRQAPGKGLEWVSAISGGDGNTYYADSVKGRFAISRDNSKNVVYLQMNSLRAEDTAVYFCAKDLVGVVAGYYYYFGMDVWGQGTTVTVSS
# VL: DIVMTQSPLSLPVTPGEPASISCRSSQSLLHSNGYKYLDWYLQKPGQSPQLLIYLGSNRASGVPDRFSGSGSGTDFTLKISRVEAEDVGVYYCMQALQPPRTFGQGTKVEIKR
# notes: Tested as purified hybridoma IgG2 or IgG4; also called Ab-9; 30E1.1
# B16: 32H3 (antibody, V domains shown)
# VH: EVQLLESGGGLVQPGGSLRLSCAASGFTFSSYAMSWVRQAPGKGLKWVSAISGGAGNTYYADSVKGRFTISRDISKSTVYLQMTSLRAEDTAIYYCAKDGVGTTGGYFYYHGMDVWGQGTTVTVSS
# VL: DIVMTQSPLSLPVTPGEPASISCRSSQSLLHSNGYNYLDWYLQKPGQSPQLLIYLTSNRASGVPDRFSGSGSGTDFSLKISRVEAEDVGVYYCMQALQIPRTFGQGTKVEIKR
# notes: Tested as purified hybridoma IgG2 or IgG4; also called Ab-12; 32H3.1
# B17: 1E1-PEG4-Mal-DM4 (antibody drug conjugate) (other)
# VH: QVQLVQSGAEVKKPGASVKVSCKASGYTFTGHYIHWVRQAPGQGLEWMGWIYPNSGGTNYAQKFQGRVTMTRDTSISTAYMELSRLRSDDSAVYYCAREGMVTGDYYYYRMDVWGQGTTVIVSS
# VL: QPVLTQPPSASASLGASVTLTCSLSSGYSNYKVDWYQQRPGKGPRFVMRVGIGGIVGSKGDGIPDRFSVLGSGLNRYLTIKNIQEEDESDFHCGADHGSGNNFVYVFGTGTKVTVLG
# modifications: antibody carries DM4 through the PEG4-Mal linker; sites not stated
# B18: 1E1-MCC-DM1 (antibody drug conjugate) (other)
# VH: B17 VH
# VL: B17 VL
# modifications: antibody carries DM1 through the MCC linker; sites not stated
# B19: 40D7 (antibody, V domains shown)
# VH: B1 VH with H81Q, V82M, S86R, S90T, L102M
# VL: B1 VL with V1D, L4M, Y37F, F67L, F90I, Q98R
# notes: also called Ab-17; 40D7.1
# B20: 33D4 (antibody, V domains shown)
# VH: QVQLQQSGPGLVKPSQTLSLTCAISGDSVSSTNVAWNWIRQSPSRGLEWLGGTFYRSNWYNDYAISVKSRITINPDTSKNQFSLQLNSVTPEDTAVYYCARFYSWNSYFDYWGQGILVTVSS
# VL: B17 VL with S23T, Q38H, I52T, G100E, N101T
# notes: Tested as purified hybridoma IgG2 or IgG4; also called Ab-14; 33D4.1
# B21: 32B5 (N69Q) (antibody, human IgG1, kappa, V domains shown)
# VH: B1 VH
# VL: B1 VL with N58Q
# notes: also called 32B5 (LC: N69Q); P70169.3
# B22: 32B5 (T71A) (antibody, human IgG1, kappa, V domains shown)
# VH: B1 VH
# VL: B1 VL with T60A
# notes: also called 32B5 (LC: T71A); P70170.3
# Target: T1, human BCMA (huBCMA), full length, on cells (human, UniProt Q02223 1-184)
# T1 construct: also called native huBCMA; B-cell maturation antigen
# T1 chain: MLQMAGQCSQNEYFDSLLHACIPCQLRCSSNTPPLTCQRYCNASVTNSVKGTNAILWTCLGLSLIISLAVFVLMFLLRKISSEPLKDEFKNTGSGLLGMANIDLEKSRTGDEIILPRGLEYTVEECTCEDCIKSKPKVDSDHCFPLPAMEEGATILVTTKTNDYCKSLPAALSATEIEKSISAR
# Test: FACS on H929 cells, native BCMA, relative binding, indirect
row,Binder,EC50 [nM]
1,B1,7
2,B2,4.2

# Target: T1, human BCMA (huBCMA), full length, on …
# Test: cell-based or functional assay
row,Binder,ADCC EC50 [µg/mL]
1,B3,0.028
2,B4,0.111
3,B5,0.016
4,B6,0.0191
5,B7,0.0417
6,B8,0.0327
7,B9,0.0169
8,B10,0.364

# Target: T2, cynomolgus BCMA, on transiently transfected 293T cells (cynomolgus (Macaca fascicularis), UniProt Q02223 1-184 (human entry))
# T2 construct: also called cyno BCMA
# T2 sequence (Q02223 other isoform, or with tags, fused parts or gaps): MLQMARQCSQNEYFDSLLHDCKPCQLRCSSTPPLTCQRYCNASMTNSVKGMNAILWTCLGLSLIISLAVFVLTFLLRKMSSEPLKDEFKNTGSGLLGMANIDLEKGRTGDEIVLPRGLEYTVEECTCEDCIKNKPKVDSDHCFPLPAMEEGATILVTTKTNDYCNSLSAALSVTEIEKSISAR
# Test: FACS O/N
row,Binder,MFI
1,B11,109
2,B2,108
3,B12,110
4,B13,152
5,B14,104
6,B15,130
7,B16,122

# Target: T1, human BCMA (huBCMA), full length, on …
# Test: cell-based or functional assay
# Remark: another data set of the same source
Binder,"H929 cell growth inhibition IC50 (CellTiter-Glo, 96 h) [nM]","cell viability IC50 (CellTiter-Glo, 96 h), H929 cells [nM]"
B1,0.506,
B17,,0.68
B18,,0.63

# Target: T1, human BCMA (huBCMA), full length, on …
# Test: FACS
row,Binder,MFI
1,B19,36300
2,B20,89900

# Target: T2, cynomolgus BCMA, on transiently …
# Test: FACS
row,Binder,MFI
1,B19,39300
2,B20,19400

# Target: T3, BAFF-R, full length, on transiently transfected cells (human, UniProt Q96RJ3 1-184)
# T3 construct: whole, on cells; also called huBAFF-R
# T3 sequence (looked up): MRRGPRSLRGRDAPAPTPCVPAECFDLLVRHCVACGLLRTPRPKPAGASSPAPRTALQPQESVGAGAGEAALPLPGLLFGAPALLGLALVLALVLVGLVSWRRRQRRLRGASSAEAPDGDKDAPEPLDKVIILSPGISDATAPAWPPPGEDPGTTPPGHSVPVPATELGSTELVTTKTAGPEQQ
# Test: FACS
Binder,MFI,binding result
B20,723,no binding

# Target: T4, TACI, full length, on transiently transfected cells (human, UniProt O14836 1-293)
# T4 construct: whole, on cells; also called huTACI
# T4 sequence (looked up): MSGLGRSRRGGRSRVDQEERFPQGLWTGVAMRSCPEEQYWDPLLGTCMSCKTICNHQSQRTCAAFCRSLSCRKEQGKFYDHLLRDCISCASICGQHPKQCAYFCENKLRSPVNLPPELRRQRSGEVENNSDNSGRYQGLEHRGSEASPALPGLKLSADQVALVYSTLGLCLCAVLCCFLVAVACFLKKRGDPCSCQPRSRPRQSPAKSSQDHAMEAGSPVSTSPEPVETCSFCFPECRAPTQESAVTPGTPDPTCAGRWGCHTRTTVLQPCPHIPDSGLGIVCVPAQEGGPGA
# Test: FACS
Binder,MFI,binding result
B19,1390,no binding
B20,261,no binding

# Target: T1, human BCMA (huBCMA), full length, on …
# Test: APRIL blocking FACS
# Design: concentration or dose not given beside the values
Binder,% Inhibition n=1 [%],% Inhibition n=2 [%],Avg. % Inhibition [%]
B11,68,88,78
B2,87,116,101
B12,30,62,46
B13,57,82,70
B14,37,58,48
B15,31,46,38
B16,20,47,33

# Target: T1, human BCMA (huBCMA), full length, on …
# Test: FACS
# Remark: another data set of the same source
row,Binder,MFI
1,B11,132000
2,B2,137000
3,B12,82600
4,B13,129000
5,B14,83700
6,B15,109000
7,B16,97700

# Target: T2, cynomolgus BCMA, on transiently …
# Test: FACS
# Remark: another data set of the same source
row,Binder,MFI
1,B11,238000
2,B2,259000
3,B12,97300
4,B13,198000
5,B14,136000
6,B15,78500
7,B16,51200

# Target: T4, TACI, full length, on transiently …
# Test: FACS
# Remark: another data set of the same source
Binder,MFI,binding result
B11,1890,no binding
B2,274,no binding
B12,256,no binding
B13,506,no binding
B14,1040,no binding
B15,555,no binding
B16,1360,no binding

# Target: T1, human BCMA (huBCMA), full length, on …
# Test: FACS, H929 cells
row,Binder,binding result
1,B21,binds
2,B22,binds
